The nature of this data set: protein stability index of a GFP-peptide fusion (GPS, HEK-293T) (PSI 1-6); higher = more stable.
Setting [1] is: treatment: DMSO, c terminus: a fixed tail appended.
Where [2] appears, read: treatment: MLN4924 1 uM, 8 h, c terminus: a fixed tail appended.

± gives the standard deviation.
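Note: 24-mer peptide tiles fused after GFP, lentivirally expressed, FACS-sorted into six equal bins by GFP/DsRed ratio, decoded by Illumina sequencing, PSI is the read-weighted mean bin number.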

TQHNFQEVMESEEFMLLPANQLID [KLHL20]: the protein stability index amounted to 4.43 ± 0.18 under setting [1] and 4.66 ± 0.24 under setting [2].
With ITFPSLESCEEKNQLILTASADRT [WDR41], the protein stability index under setting [1] worked out at 4.02 ± 0.29 and the protein stability index under setting [2] came out at 4.1 ± 0.35.
For RPMHHEDFKEDLKKFRTKSRTWAG [CDC25A], in that order: 3.31 ± 0.22 and 3.61 ± 0.36.
For AASTAAALENLQVEASCSVCLEYL [TRIM39] the same measures were 2.74 ± 0.37 and 2.81 ± 0.48.
For KLSEHLRYCDSILREMLSKKHAAY [BRD3] the same measures were 2.28 ± 0.21 and 2.14 ± 0.21.
Consider GSSSVALPKEASDGTGASQEPPTT [TOR1AIP2], for which the protein stability index under setting [1] was determined as 5.4 ± 0.43 and the protein stability index under setting [2] is 5.6 ± 0.34.
In the case of TWWIMFLSTFSVPYFLFQHWATGY [SOAT1], the protein stability index by setting is: under setting [1], 3.18 ± 0.29; under setting [2], 2.77 ± 0.51.
Consider SSFQDLLGDALAGPPRAPGRSGWP [HES6], for which the protein stability index came to 3.13 ± 0.12 under setting [1] and 3.11 ± 0.18 under setting [2].
For IVTVHYGCASFIYLRPQSNYSSSQ [OR10K2] the same measures were 2.92 ± 0.39 and 2.95 ± 0.56.
For LTENTAENRELYIKTTLRELLVYI [PKD2L1] the same measures were 2.31 ± 0.36 and 2.45 ± 0.33.
For NFSAAKSLLKKPDGVKESTESSNT [CAMK2D] the same measures were 5.35 ± 0.22 and 5.28 ± 0.35.
As to LPVASSSTLLPLAPSNSTSLNSTF [NFE2L1], the protein stability index is, setting by setting: under setting [1], 3.89 ± 0.11; under setting [2], 3.65 ± 0.24.
For TRILKHSPESSRGQCGENLAWASY [GLIPR2], in that order: 2.38 ± 0.44 and 2.38 ± 0.18.
For GDTSATESGDEVPVELYTAFQHTP [KMT2E] the same measures were 4.97 ± 0.18 and 5.04 ± 0.17.
For QVTMRGLLSCLSKSNNRLKSLSIQ [FBXO39] the same measures were 2.21 ± 0.11 and 2.07 ± 0.21.
Turning to LIDRSGRHFGTILNYLRDGSVPLP [KCTD13], the protein stability index runs as follows: under setting [1], 2.37 ± 0.28; under setting [2], 2.46 ± 0.32.
For ASWAKPHYEFNLSRMKFRGNGALS [LCOR], in that order: 2.56 ± 0.19 and 2.71 ± 0.24.
For YKGPLLEEQALTKAAEGGLSSPEF [FAM98B], in that order: 4.41 ± 0.33 and 4.55 ± 0.27.
As for ESKIREHLEKKGPQVRDWSHYFKI [KRT18], the protein stability index is, setting by setting: under setting [1], 2.82 ± 0.26; under setting [2], 2.67 ± 0.28.
For LTDGHFENILADNSVNDQTKILVV [SERPINB5], in that order: 3.09 ± 0.44 and 3.67 ± 0.29.
For FPEELHRKAALEQDLAFWYGPRWQ [HMOX1] the same measures were 2.3 ± 0.25 and 2.62 ± 0.31.
For the sequence KSLEIEEKINKIKWLPQQNAAHSL [PPP2R2C], the protein stability index is 3.66 ± 0.21 under setting [1] and 3.67 ± 0.13 under setting [2].
For the sequence SVSWWGLSPALDLQAESPPVDPDS [DNAAF3], the protein stability index came to 4.85 ± 0.12 under setting [1] and 4.944 ± 0.047 under setting [2].
For YRQSSFPHCSDLMPSGSEEKILRE [KCNA4] the same measures were 4.25 ± 0.29 and 4.26 ± 0.14.
For DTFQKELMCFDPDTDKWIQKAPMT [KLHL13] the same measures were 4.16 ± 0.28 and 3.87 ± 0.15.
For IVADIELENVLDPDSFYELKSQPL [TFE3], in that order: 2.65 ± 0.47 and 3.09 ± 0.51.
On to FAIGARARAEAEQMAKKAEAFQLY [FLOT1], for which the protein stability index reads like this: under setting [1], 2.78 ± 0.42; under setting [2], 3.02 ± 0.58.
For DVKAMGPLVLTEVLFNEKIREQIK [EIF5] the same measures were 2.39 ± 0.11 and 2.28 ± 0.34.
For CLEPLEQKLQEITRCKSSEEKKPG [TRIM39], in that order: 4.89 ± 0.23 and 5.08 ± 0.18.
For TLASVPPAATFGADDLVLTLSNPQ [ELF3] the same measures were 4.28 ± 0.21 and 4.25 ± 0.2.
In the case of HYICTLKQPHLLLEKYSYYLISG [PNLIPRP1], the protein stability index was found to be 3.31 ± 0.66 (treatment: DMSO, c terminus: native) and 3.39 ± 0.14 (treatment: MLN4924 1 uM, 8 h, c terminus: native).
Consider KKHYRLQFYMFGWTHVTLLIVVTQ [CDS2], for which the protein stability index was 2.89 ± 0.55 under setting [1] and 2.58 ± 0.71 under setting [2].
For ALKEDFGFKHRLWVYSGRRGVHCW [PRIM1], in that order: 2.28 ± 0.65 and 2.48 ± 0.61.
For SFARDLPDFPSINMDPAGLDDEDD [RETREG3], in that order: 5.41 ± 0.32 and 5.49 ± 0.098.
The sequence GGYRPAEDKIFPVPEEPPVKKLMR [ZBED1] had a protein stability index under setting [1] of 3.99 ± 0.13 and a protein stability index under setting [2] of 4.36 ± 0.3.
For RPLCAQGDWHSPTLIREKSFGACL [ELOA2], in that order: 2.53 ± 0.19 and 2.6 ± 0.21.
For TDAGKAFCMFYAVLGIPLTLVMFQ [KCNK9], the protein stability index is, setting by setting: under setting [1], 3.35 ± 0.4; under setting [2], 3.06 ± 0.31.
For GPFRTLLQFLYTGQLDEKEKDLVG [RHOBTB1], in that order: 2 ± 0.054 and 2.49 ± 0.3.
For VELLHNTSYTRQACLVSCFQQLMV [SCNN1D], in that order: 2.39 ± 0.78 and 2.5 ± 0.94.
For PSGNNGSVNWRTGSFHGPGHISLR [DLC1], in that order: 3.09 ± 0.18 and 3.01 ± 0.19.
Take NPFFAKTLQHWPHIIRIGDLKPTG [DENND6A]: the protein stability index was found to be 2.21 ± 0.34 under setting [1] and 2.07 ± 0.23 under setting [2].
With LKDGYRLDEIPDDEDLDLIPPKSV [FAM219A], the protein stability index under setting [1] is 5.16 ± 0.15 and the protein stability index under setting [2] is 5.3 ± 0.13.
For MKVEAKSHLQWQESRLKRSNPLAR [ZSCAN9] the same measures were 3.35 ± 0.33 and 3.67 ± 0.19.
For RASYSDGKLKAPPKPCAGNQGTQI [MLH1], in that order: 4.05 ± 0.53 and 4.17 ± 0.14.
For QLPIDRGGGEGKAMYIDTEGTFRP [RAD51], in that order: 4.16 ± 0.15 and 4.05 ± 0.24.
Regarding DSCCPAGIFQAMCLLICAEMYQVS [RHOBTB3], the protein stability index by setting is: under setting [1], 3.07 ± 0.12; under setting [2], 3.02 ± 0.31.
For LPPPSAPSLQPSRKLSPTEPKNYG [SCAMP3] the same measures were 4.79 ± 0.16 and 4.86 ± 0.24.
For ERICSEEERAKAKHLARQLEEKDR [CHCHD3] the same measures were 5.4 ± 0.13 and 5.17 ± 0.35.
For IPAVGSSLSEALDLIESDPDAWCD [MYBL2] the same measures were 4.47 ± 0.58 and 4.58 ± 0.23.
For GGWETVFRPVSETCTDRSGISTGH [FUT8], the protein stability index runs as follows: under setting [1], 3.48 ± 0.35; under setting [2], 3.43 ± 0.22.
Under setting [2], ASQCCGVHVISLHIWELSSIKNSL [PTGFR] displayed a protein stability index of 2.31 ± 0.52.
Consider SERDSEAAKQNHVTADDFVQTSVI [EHMT1], for which the protein stability index by setting is: under setting [1], 5.34 ± 0.45; under setting [2], 5.35 ± 0.34.
For RRDAEEWFHAKSAELNKEVSTNTA [KRT13], in that order: 4.71 ± 0.25 and 4.79 ± 0.1.
For MESKRLRLLQEEDRRKKIARMGFN [DCAF4] the same measures were 3.44 ± 0.36 and 3.73 ± 0.48.
For LSSYISINSDTGVLYALRSFDYEQ [PCDHGA10] the same measures were 2.12 ± 0.23 and 2.27 ± 0.092.
AALEEESRQRQSRMEKGEPYMSIQ [SMARCE1]: the protein stability index was 4.88 ± 0.34 under setting [1] and 4.88 ± 0.22 under setting [2].
As for QLKAVHEQLAALSQAPVNKPKKKK [BRD3], the protein stability index by setting is: under setting [1], 4.51 ± 0.44; under setting [2], 4.6 ± 0.19.
For LHRTEGELQKIVQAGDKDLDGQLD [SLC25A25] the same measures were 5.58 ± 0.21 and 5.55 ± 0.31.
For GVGGKRSSKSDADSGFLGLRPTSV [NOP53], in that order: 4.16 ± 0.44 and 4.03 ± 0.27.
For NLRAAGAEALGKLLQQNKSIQSLT [LRRC45], in that order: 3.26 ± 0.19 and 3.33 ± 0.19.
Take RLVLPIAYEFNPELVLVSAGFDAA [HDAC6]: the protein stability index is, setting by setting: under setting [1], 2.3 ± 0.57; under setting [2], 2.4 ± 0.2.
For FDYEYDWIGKQLPTPVGAVQQDPA [CSNK1G3], in that order: 3.63 ± 0.2 and 3.65 ± 0.44.
For TILLDGQRVKLKLWDTSGQGRFCT [RAB40A], in that order: 2.21 ± 0.13 and 2.21 ± 0.23.
For LQTGPLLGRPDSLELQRQREARKR [RSPH3], in that order: 4.83 ± 0.2 and 5.08 ± 0.31.
For the sequence VDSFETQRNGLVFIYDMCGSNYAN [PTPN9], the protein stability index reads like this: under setting [1], 2.23 ± 0.24; under setting [2], 2.05 ± 0.28.
For LPAQPNRKPGMSSTARRSRAASSQ [CHMP4C] the same measures were 4.88 ± 0.16 and 4.87 ± 0.16.
Take HYYPKLMSIMGNVLRFLPAFVRMK [GFOD1]: the protein stability index was 2.41 ± 0.12 under setting [1] and 2.24 ± 0.12 under setting [2].
For FEFSVDSFQIVLDPMLDFYSDKNA [TENT5D], in that order: 2.91 ± 0.93 and 2.52 ± 0.42.
For TPAKSLDKFIEDYLLPDTCFRMQI [OAS1], in that order: 2.51 ± 0.51 and 2.65 ± 0.48.
Regarding RHVAPIPSHYDVQDRFRIELSEEG [MOSPD3], the protein stability index was determined as 4.34 ± 0.4 under setting [1] and 4.69 ± 0.21 under setting [2].
The sequence MSEGKPPDKKKRPRRSLSISKNKK [FAN1] returned a protein stability index under setting [1] of 5.08 ± 0.17 and a protein stability index under setting [2] of 5.07 ± 0.21.
For NTVERYNPQENRWHTIAPMGTRRK [KLHL20] the same measures were 4.43 ± 0.15 and 4.59 ± 0.17.

Values taken from the supplement of paper PMC10567573.
